Target: endogenous gelsolin (mouse (endogenous in osteoclasts)) (UniProt P13020)
Test: co-IP

Chain of endogenous gelsolin (mouse (endogenous in osteoclasts)) (P13020 26-780): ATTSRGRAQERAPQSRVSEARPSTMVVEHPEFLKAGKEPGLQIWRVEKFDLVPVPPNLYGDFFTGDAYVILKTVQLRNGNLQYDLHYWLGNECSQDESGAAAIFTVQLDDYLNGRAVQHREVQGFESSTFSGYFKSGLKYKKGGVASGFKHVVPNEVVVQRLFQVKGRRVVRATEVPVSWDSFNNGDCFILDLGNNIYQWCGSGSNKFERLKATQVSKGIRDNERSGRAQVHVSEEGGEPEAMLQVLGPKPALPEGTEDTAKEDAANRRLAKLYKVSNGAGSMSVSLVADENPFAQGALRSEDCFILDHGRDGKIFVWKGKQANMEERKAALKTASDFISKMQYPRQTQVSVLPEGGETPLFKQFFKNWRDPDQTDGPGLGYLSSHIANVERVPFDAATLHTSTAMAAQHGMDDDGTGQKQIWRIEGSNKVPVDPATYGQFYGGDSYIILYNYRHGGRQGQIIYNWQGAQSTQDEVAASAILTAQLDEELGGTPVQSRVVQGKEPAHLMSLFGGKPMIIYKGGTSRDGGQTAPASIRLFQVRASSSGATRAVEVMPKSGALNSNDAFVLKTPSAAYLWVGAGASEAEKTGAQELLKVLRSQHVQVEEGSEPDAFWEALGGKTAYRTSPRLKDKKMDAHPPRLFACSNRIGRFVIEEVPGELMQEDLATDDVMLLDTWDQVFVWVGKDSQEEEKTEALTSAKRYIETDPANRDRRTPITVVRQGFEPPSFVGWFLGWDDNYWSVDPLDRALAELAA

“actin (from UniProt P60710 1-375) (natural protein)” was tested, and the gelsolin/actin ratio of the EGTA-resistant complex (untransduced, OPN) was 0.82 and the gelsolin/actin ratio of the EGTA-resistant complex (untransduced, PBS) was 1.45.

— paper PMC441372
